Primed or numbered codes have the meaning given here. Where no end group is shown, it is not given here. [ ]: non-standard residue; d: D form. The star is where a group is joined. Biotin = O=C1N[C@H]2[C@H](CS[C@H]2CCCCC(=O)*)N1; Lys(Me3) = C[N+](C)(C)CCCC[C@H](N)C(=O)O; PEG4′ = not defined here
Legend:
IGFBP4 = biological target: T1, IGFBP4 (human, UniProt P22692 22-258); assay: cell microarray on HEK293 cells
T1 construct: whole, on cells; Secreted targets were tethered to the plasma membrane
T1 sequence (looked up): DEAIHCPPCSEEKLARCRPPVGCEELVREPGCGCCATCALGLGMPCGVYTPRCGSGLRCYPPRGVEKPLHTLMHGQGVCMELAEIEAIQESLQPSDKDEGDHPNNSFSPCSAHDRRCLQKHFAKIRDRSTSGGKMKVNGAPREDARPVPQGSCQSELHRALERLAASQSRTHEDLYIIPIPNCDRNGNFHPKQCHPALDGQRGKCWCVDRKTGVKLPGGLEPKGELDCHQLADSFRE
Method: (§1) Initially, two pools of compounds were tested. […] To perform this assay, HEK293 cells were plated on a dish and localized spots of cells were transiently over-expressed with a single cDNA encoding for GFP and one of the 6,416 targets. Included in this library were multiple clones for the Nectin family members, including plasma membrane, non-tethered secreted, and tethered secreted forms of Nectin-1, 2, 3, and 4. Secreted protein targets were tethered to the plasma membrane to aid in detection. The molecule pools were incubated on the fixed, over-expressing cell microarrays (n=2 per protein), and binding was visualized using Alexa Fluor 647 streptavidin fluorescence.

IGF1 = biological target: T2, IGF1 (human, UniProt P05019 49-118); assay: cell microarray on HEK293 cells
T2 construct: whole, on cells; Secreted targets were tethered to the plasma membrane
Method: as §1

TRPV5 = biological target: T3, TRPV5 (human, UniProt Q9NQA5 1-729); assay: cell microarray on HEK293 cells
T3 construct: whole, on cells
Method: as §1

MFSD2B = biological target: T4, MFSD2B (human, UniProt A6NFX1 1-504); assay: cell microarray on HEK293 cells
T4 construct: whole, on cells
T4 sequence (looked up): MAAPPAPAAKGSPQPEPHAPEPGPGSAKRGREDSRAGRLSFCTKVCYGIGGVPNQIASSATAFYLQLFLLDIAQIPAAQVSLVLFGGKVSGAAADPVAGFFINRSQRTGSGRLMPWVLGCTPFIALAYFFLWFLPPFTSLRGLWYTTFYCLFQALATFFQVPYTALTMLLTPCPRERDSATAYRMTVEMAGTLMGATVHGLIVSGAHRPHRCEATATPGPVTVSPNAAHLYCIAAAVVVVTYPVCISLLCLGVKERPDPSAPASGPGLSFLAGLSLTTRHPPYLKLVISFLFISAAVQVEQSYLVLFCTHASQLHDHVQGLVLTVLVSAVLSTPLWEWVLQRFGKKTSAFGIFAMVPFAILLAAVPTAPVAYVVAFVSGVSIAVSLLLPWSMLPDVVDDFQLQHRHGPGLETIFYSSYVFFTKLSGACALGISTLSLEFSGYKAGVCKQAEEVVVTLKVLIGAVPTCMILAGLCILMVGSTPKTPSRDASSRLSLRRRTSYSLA
Method: as §1

IGF2 = biological target: T5, IGF2 (human, UniProt P01344 25-91); assay: cell microarray on HEK293 cells
T5 construct: whole, on cells; Secreted targets were tethered to the plasma membrane
Method: as §1

IGFBP3 = biological target: T6, IGFBP3 (human, UniProt P17936 28-291); assay: cell microarray on HEK293 cells
T6 construct: whole, on cells; Secreted targets were tethered to the plasma membrane
Method: as §1

EDN2 = biological target: T7, EDN2 (human, UniProt P20800 49-69); assay: cell microarray on HEK293 cells
T7 construct: whole, on cells; Secreted targets were tethered to the plasma membrane
T7 chain (looked up): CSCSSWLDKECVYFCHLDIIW
Method: as §1

SLC22A23 = biological target: T8, SLC22A23 (human, UniProt A1A5C7 1-686); assay: cell microarray on HEK293 cells
T8 construct: whole, on cells
T8 sequence (looked up): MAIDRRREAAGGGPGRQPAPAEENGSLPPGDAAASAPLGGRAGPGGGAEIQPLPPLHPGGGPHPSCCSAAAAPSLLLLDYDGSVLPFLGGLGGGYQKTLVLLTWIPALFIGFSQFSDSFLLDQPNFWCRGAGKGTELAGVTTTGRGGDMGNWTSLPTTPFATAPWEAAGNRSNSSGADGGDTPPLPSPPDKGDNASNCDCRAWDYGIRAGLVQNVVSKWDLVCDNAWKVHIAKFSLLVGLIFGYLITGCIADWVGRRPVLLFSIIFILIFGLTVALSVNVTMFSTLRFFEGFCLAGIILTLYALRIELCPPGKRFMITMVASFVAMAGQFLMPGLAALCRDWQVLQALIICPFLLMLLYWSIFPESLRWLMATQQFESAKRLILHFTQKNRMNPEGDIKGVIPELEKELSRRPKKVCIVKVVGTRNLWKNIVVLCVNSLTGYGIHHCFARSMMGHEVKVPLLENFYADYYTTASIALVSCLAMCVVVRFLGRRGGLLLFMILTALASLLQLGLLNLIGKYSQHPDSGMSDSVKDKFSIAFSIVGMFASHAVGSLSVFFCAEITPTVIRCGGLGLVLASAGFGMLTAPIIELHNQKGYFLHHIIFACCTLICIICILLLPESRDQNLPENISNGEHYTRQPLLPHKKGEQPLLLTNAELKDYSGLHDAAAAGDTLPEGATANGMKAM
Method: as §1

Nectin-1 = biological target: T9, Nectin-1 (human, UniProt Q15223 31-517); assay: cell microarray on HEK293 cells, pooled compounds
T9 construct: whole, on cells; Plasma membrane, non-tethered secreted and tethered secreted forms in the library
T9 sequence (looked up): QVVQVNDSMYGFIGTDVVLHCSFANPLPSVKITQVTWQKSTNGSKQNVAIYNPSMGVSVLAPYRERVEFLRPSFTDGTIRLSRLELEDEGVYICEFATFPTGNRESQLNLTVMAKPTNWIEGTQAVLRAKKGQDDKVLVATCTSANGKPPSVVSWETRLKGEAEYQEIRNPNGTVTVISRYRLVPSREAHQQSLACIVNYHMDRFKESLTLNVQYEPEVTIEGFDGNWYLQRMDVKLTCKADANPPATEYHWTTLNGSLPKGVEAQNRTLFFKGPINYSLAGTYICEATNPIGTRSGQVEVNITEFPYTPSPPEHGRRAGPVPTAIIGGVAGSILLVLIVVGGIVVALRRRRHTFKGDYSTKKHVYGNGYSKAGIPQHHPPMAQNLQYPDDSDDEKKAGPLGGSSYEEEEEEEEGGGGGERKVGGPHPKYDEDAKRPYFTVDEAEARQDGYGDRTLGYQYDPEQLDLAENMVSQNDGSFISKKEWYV
Method: as §1

Measured: binding result

T6 sequence (P17936 28-291): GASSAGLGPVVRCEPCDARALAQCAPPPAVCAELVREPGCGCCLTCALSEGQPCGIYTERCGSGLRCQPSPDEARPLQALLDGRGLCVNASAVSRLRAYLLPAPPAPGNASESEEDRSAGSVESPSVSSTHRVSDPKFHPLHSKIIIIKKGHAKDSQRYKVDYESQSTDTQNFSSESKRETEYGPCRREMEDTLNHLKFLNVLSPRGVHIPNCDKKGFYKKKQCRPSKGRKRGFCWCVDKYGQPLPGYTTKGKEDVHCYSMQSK
T2 sequence (P05019 49-118): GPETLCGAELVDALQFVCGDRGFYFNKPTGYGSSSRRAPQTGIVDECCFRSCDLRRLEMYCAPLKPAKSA
T3 sequence (Q9NQA5 whole entry): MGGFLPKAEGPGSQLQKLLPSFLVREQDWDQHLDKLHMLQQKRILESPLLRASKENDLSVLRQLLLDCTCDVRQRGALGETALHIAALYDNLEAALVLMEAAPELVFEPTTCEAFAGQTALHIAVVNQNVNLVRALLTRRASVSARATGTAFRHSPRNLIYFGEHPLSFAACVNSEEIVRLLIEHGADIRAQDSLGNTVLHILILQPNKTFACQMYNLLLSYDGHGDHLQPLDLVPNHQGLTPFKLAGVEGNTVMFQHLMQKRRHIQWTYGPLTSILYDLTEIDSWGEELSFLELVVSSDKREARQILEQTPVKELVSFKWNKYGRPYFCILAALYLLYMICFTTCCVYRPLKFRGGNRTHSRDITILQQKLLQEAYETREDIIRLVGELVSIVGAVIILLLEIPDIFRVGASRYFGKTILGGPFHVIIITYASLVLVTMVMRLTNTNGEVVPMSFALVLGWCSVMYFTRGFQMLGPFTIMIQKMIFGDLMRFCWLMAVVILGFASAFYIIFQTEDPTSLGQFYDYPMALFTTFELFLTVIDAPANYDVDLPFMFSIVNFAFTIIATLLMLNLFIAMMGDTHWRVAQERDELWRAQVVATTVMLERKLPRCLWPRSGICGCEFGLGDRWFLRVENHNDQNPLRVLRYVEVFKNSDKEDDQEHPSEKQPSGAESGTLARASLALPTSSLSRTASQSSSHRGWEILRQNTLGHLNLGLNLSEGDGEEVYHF
T5 sequence (P01344 25-91): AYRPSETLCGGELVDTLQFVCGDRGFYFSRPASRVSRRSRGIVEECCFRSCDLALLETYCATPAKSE

{Biotin-PEG4′}-CDYDEQFFTALKRLRGADICEYIQASFQYLPGECIEEILDNLGCS (designed binder, cysteine pairing not given here) [C208]
no binding (tested: 2 µg/mL): all assays above

{Biotin-PEG4′}-CDYDEQFFTALARLRGADICEYIQASFQYLPGECIEEILDNLGCS (designed binder, cysteine pairing not given here) [C247]
no binding (tested: 2 µg/mL): all assays above

{Biotin-PEG4′}-CDYDEQFFTALKRLRGGDICEYIQASFQYLPGLCIEEILDNLGCS (designed binder, cysteine pairing not given here) [C190]
no binding (tested: 2 µg/mL): all assays above

{Biotin-PEG4′}-CEYDEQFFTALKRLRGDDICDYIQASFQYLPGLCIEEILDNLGCS (designed binder, cysteine pairing not given here) [C197]
no binding (tested: 2 µg/mL): all assays above

{Biotin-PEG4′}-CEYDEEFFTALARLRGGDICQYIQA[Lys(Me3)]FQYLPALCIEEILDNLGCS (designed binder, cysteine pairing not given here) [C253]
no binding (tested: 2 µg/mL): all assays above
